Results published in patent US20260091082A1, “CYCLIC PEPTIDE DERIVATIVE COMPOSITION FOR TREATING OR PREVENTING EYE DISEASE” (DKS Co. Ltd., priority 2022, published 2026).
Several values for one entry are separate records, joined by “and”; a condition that tells them apart may be missing. Identical values can stand only once.

Legend:
[1] = Body weight measurement during the CNV rat test; type: in vivo; conditions: for Body Weight (Average): Group 2, IVT inj. 200 μg/5 μL/eye single dose; for Weight (g) (Individual): Group 2 individual animals, IVT 200 μg/5 μL/eye
Experimental: The appearance, behavior, and state of excrement or the like were observed every day.
The body weight was measured on the animal arrival date, the preliminary housing end date (grouping date), the eyedrop administration start date, the laser irradiation date (Day 0), and the eyeball enucleation date (Day 14).

[2] = system: laser-induced choroidal neovascularization rat model; test: Laser-induced choroidal neovascularization rat model: CNV area in choroidal flat mount (FITC-dextran); type: in vivo
Experimental: The groups were set as in Table 8 below. Laser irradiation was performed on the right eye in 10 animals in each group. EYLEA (registered trademark) was administered intravitreally into the right eye of individuals in Group 2 immediately after laser irradiation. For the individuals of Groups 1, 3, and 4, eyedrop administration of the administration substances of each group was performed four times a day from the day of laser irradiation to the day before eyeball enucleation.
Animals to be laser-irradiated were subjected to pupil dilation with Mydorin (registered trademark) P ophthalmic solution, and subjected to general anesthesia by intramuscular injection of a mixed solution of ketamine hydrochloride/xylazine hydrochloride (4:1, v/v) (1 mL/kg) into the thigh muscle. Then, fundus of the right eye was then observed using a slit lamp (SL-130, Carl Zeiss Meditec AG), and laser irradiation was performed at six locations using a green laser photocoagulation device (GYC-500, Nidek Co., Ltd.), avoiding thick capillaries of the retina. The laser conditions were a wavelength of 532 nm (green), a spot size of 50 μm, an irradiation time of 0.1 sec, and a laser irradiation intensity of 300 mW. Except for the individuals to be administered EYLEA (registered trademark), sodium hyaluronate (Hyalein (registered trademark) ophthalmic solution 0.3%, Santen Pharmaceutical Co., Ltd.) as an eye drop for treatment of corneal and conjunctival epithelial disorders was instilled into both eyes after laser irradiation.
Levofloxacin hydrate (CRAVIT (registered trademark) 1.5% ophthalmic solution, Santen Pharmaceutical Co., Ltd.) as a broad-spectrum antibacterial eye drop and oxybuprocaine hydrochloride (Benoxil (registered trademark) 0.4% ophthalmic solution, Santen Pharmaceutical Co., Ltd.) as an ophthalmic topical anesthetic were once instilled into the right eye of rats in Group 2 (EYLEA (registered trademark) administration group) after end of laser irradiation, and then EYLEA (registered trademark) was intravitreally administered at a dose of 200 μg/5 μL/eye using a 33 G two-stage injection needle and a microsyringe (Ito Manufacturing Co., Ltd.). The microsyringe was washed with D-PBS before administration. Hyalein (registered trademark) ophthalmic solution 0.3% was instilled into both eyes after intravitreal administration.
Eyedrop administration of the test substance and the negative control administration solution was performed in a volume of 5 μL/eye using a micropipette (Eppendorf Research Plus V, Eppendorf) at the administration period and the number of times determined for each group (see Group constitution table of Item (2)). At that time, since a test substance solution adheres to an outer side of the tip, care was taken so that the adhering test substance solution was wiped off with a Kimwipe once each time of eyedrop administration, and an excessive amount of the test substance solution was not instilled. In addition, although the tip of the pipette tip was sharp, care was taken not to damage the eyeball surface. Immediately before administration, the administration solution was lightly (about several seconds) centrifuged using a small microcentrifuge Wonder Spin, and the supernatant was used for administration.
Fourteen days after laser irradiation (Day 14), under general anesthesia by intramuscular femoral administration (1 mL/kg) of a ketamine hydrochloride/xylazine hydrochloride (4:1, v/v) mixed solution, a 4% FITC-dextran solution was administered to the tail vein at a dose of 40 mg/l mL/animal.
After 1 minute from the tail vein administration of the 4% FITC-dextran solution, rats were euthanized by excessive anesthesia by administration of 129.6 mg/mL sodium pentobarbital solution and the right eye ball was enucleated. The enucleated eyeball was fixed in a 4% paraformaldehyde phosphate buffer (FUJIFILM Wako Pure Chemical Corporation, hereinafter referred to as 4% PFA) for 12 to 30 hours at normal temperature. […]

With Aflibercept [EYLEA] the “Body Weight (Average)” value ([1]; Day 0 (Laser injection)) was 155.10 g, the “Body Weight (Average)” value ([1]; Day 14 (Enucleation)) was 200.52 g and the “Body Weight (Average)” value ([1]; Day −3 or Day −2 (Grouping)) was 141.91 g. The “Weight (g) (Individual)” value ([1]; Enucleation (Day 14)) was 191.41 g and 189.23 g and 203.15 g and 192.58 g and 215.19 g and 210.30 g and 206.10 g and 205.20 g and 197.20 g and 194.87 g, the “Weight (g) (Individual)” value ([1]; Grouping (Day −3 or −2)) was 132.69 g and 135.94 g and 139.54 g and 143.39 g and 145.96 g and 144.35 g and 147.21 g and 151.85 g and 140.51 g and 137.64 g and the “Weight (g) (Individual)” value ([1]; Laser injection (Day 0)) was 140.59 g and 146.82 g and 151.42 g and 154.62 g and 160.15 g and 162.32 g and 160.99 g and 169.71 g and 155.47 g and 148.87 g. For the same substance, the “Area of CNV Lesion, Mean” value ([2]; Group 2, IVT inj. 200 μg/5 μL/eye single dose after irradiation, 14 days after laser, N=10) was 421359.3 pixel, the “CNV area compared with Group 1 (saline), in words” value ([2]; Group 2, intravitreal 200 μg/5 μL/eye, Student's t-test) was “CNV area was significantly reduced” and the “Individual Value of CNV Area in Each Animal” value ([2]; Group 2 individual animals, IVT 200 μg/5 μL/eye, 14 days after laser) was 396255.8 pixel and 417758.8 pixel and 460248.8 pixel and 470883.0 pixel and 474112.7 pixel and 444455.3 pixel and 440849.3 pixel and 374017.3 pixel and 402387.0 pixel and 332625.3 pixel.
